Test results reported in IntAct's records for PubMed 17474147.

B1: 1-phosphatidylinositol 4,5-bisphosphate phosphodiesterase gamma-1 (Homo sapiens), P19174 (parent)
chain: MAGAASPCANGCGPGAPSDAEVLHLCRSLEVGTVMTLFYSKKSQRPERKTFQVKLETRQITWSRGADKIEGAIDIREIKEIRPGKTSRDFDRYQEDPAFRPDQSHCFVILYGMEFRLKTLSLQATSEDEVNMWIKGLTWLMEDTLQAPTPLQIERWLRKQFYSVDRNREDRISAKDLKNMLSQVNYRVPNMRFLRERLTDLEQRSGDITYGQFAQLYRSLMYSAQKTMDLPFLEASTLRAGERPELCRVSLPEFQQFLLDYQGELWAVDRLQVQEFMLSFLRDPLREIEEPYFFLDEFVTFLFSKENSVWNSQLDAVCPDTMNNPLSHYWISSSHNTYLTGDQFSSESSLEAYARCLRMGCRCIELDCWDGPDGMPVIYHGHTLTTKIKFSDVLHTIKEHAFVASEYPVILSIEDHCSIAQQRNMAQYFKKVLGDTLLTKPVEISADGLPSPNQLKRKILIKHKKLAEGSAYEEVPTSMMYSENDISNSIKNGILYLEDPVNHEWYPHYFVLTSSKIYYSEETSSDQGNEDEEEPKEVSSSTELHSNEKWFHGKLGAGRDGRHIAERLLTEYCIETGAPDGSFLVRESETFVGDYTLSFWRNGKVQHCRIHSRQDAGTPKFFLTDNLVFDSLYDLITHYQQVPLRCNEFEMRLSEPVPQTNAHESKEWYHASLTRAQAEHMLMRVPRDGAFLVRKRNEPNSYAISFRAEGKIKHCRVQQEGQTVMLGNSEFDSLVDLISYYEKHPLYRKMKLRYPINEEALEKIGTAEPDYGALYEGRNPGFYVEANPMPTFKCAVKALFDYKAQREDELTFIKSAIIQNVEKQEGGWWRGDYGGKKQLWFPSNYVEEMVNPVALEPEREHLDENSPLGDLLRGVLDVPACQIAIRPEGKNNRLFVFSISMASVAHWSLDVAADSQEELQDWVKKIREVAQTADARLTEGKIMERRKKIALELSELVVYCRPVPFDEEKIGTERACYRDMSSFPETKAEKYVNKAKGKKFLQYNRLQLSRIYPKGQRLDSSNYDPLPMWICGSQLVALNFQTPDKPMQMNQALFMTGRHCGYVLQPSTMRDEAFDPFDKSSLRGLEPCAISIEVLGARHLPKNGRGIVCPFVEIEVAGAEYDSTKQKTEFVVDNGLNPVWPAKPFHFQISNPEFAFLRFVVYEEDMFSDQNFLAQATFPVKGLKTGYRAVPLKNNYSEDLELASLLIKIDIFPAKENGDLSPFSGTSLRERGSDASGQLFHGRAREGSFESRYQQPFEDFRISQEHLADHFDSRERRAPRRTRVNGDNRL
partner: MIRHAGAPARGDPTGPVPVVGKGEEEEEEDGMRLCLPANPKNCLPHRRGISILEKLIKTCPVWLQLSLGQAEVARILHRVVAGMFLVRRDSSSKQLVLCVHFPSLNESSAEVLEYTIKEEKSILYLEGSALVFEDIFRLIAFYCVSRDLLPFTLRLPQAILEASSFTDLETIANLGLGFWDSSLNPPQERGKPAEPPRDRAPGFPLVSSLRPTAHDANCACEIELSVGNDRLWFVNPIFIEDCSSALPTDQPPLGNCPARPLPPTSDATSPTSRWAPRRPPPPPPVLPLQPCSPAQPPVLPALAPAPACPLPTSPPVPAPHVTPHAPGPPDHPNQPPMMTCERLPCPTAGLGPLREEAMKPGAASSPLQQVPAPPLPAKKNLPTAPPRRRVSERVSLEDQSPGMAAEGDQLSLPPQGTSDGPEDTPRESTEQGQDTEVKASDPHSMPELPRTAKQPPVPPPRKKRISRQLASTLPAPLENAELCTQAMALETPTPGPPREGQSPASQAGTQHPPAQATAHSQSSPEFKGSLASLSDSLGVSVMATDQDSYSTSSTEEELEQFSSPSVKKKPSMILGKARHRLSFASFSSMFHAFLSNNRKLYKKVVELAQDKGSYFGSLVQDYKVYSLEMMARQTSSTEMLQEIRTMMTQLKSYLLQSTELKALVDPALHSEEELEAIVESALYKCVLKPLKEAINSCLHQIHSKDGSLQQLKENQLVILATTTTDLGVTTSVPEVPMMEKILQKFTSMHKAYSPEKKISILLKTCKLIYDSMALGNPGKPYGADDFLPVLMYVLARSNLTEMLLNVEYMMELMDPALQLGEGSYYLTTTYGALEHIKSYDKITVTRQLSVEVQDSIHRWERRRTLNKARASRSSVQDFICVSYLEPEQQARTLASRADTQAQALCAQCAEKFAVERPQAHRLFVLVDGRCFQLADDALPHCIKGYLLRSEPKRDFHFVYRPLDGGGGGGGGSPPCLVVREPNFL
B2: 1-phosphatidylinositol 4,5-bisphosphate phosphodiesterase gamma-1 (Homo sapiens), P19174 (parent)
chain: B1 chain

Columns and labels:
rin3_human RIN3, Q8TB24 = variants of: B1; details: with rin3_human RIN3, Q8TB24
[1] = variants of: B2; details: with asap2_human ASAP2, O43150
Chain of asap2_human ASAP2, O43150 (O43150 whole entry): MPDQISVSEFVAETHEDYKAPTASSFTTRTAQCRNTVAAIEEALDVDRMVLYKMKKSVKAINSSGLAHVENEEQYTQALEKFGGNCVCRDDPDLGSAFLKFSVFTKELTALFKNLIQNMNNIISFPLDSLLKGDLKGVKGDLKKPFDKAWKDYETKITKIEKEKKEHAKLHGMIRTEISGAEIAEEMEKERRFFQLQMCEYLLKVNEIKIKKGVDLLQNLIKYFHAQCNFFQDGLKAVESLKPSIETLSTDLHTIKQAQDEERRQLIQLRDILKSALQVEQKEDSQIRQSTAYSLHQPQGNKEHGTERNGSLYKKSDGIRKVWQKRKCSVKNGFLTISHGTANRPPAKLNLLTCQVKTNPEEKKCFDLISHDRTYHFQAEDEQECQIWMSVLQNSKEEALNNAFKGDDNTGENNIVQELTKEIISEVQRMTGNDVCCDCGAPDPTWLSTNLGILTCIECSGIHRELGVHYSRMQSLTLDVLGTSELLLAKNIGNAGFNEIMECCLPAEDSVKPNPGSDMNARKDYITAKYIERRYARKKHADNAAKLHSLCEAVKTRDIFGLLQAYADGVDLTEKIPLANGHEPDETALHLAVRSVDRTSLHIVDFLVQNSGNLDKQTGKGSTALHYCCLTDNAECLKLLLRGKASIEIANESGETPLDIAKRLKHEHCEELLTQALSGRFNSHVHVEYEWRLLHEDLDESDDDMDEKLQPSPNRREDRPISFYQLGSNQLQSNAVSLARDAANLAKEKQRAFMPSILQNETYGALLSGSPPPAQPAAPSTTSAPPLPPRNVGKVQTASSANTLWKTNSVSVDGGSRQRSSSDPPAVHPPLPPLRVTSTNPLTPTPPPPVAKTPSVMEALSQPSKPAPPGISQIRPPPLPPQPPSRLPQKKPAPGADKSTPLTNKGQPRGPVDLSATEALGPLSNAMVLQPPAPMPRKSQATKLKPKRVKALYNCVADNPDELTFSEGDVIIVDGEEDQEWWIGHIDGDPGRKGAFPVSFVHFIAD

abl2_human ABL2, P42684 = variants of: B2; details: with abl2_human ABL2, P42684
Chain of abl2_human ABL2, P42684 (P42684 whole entry): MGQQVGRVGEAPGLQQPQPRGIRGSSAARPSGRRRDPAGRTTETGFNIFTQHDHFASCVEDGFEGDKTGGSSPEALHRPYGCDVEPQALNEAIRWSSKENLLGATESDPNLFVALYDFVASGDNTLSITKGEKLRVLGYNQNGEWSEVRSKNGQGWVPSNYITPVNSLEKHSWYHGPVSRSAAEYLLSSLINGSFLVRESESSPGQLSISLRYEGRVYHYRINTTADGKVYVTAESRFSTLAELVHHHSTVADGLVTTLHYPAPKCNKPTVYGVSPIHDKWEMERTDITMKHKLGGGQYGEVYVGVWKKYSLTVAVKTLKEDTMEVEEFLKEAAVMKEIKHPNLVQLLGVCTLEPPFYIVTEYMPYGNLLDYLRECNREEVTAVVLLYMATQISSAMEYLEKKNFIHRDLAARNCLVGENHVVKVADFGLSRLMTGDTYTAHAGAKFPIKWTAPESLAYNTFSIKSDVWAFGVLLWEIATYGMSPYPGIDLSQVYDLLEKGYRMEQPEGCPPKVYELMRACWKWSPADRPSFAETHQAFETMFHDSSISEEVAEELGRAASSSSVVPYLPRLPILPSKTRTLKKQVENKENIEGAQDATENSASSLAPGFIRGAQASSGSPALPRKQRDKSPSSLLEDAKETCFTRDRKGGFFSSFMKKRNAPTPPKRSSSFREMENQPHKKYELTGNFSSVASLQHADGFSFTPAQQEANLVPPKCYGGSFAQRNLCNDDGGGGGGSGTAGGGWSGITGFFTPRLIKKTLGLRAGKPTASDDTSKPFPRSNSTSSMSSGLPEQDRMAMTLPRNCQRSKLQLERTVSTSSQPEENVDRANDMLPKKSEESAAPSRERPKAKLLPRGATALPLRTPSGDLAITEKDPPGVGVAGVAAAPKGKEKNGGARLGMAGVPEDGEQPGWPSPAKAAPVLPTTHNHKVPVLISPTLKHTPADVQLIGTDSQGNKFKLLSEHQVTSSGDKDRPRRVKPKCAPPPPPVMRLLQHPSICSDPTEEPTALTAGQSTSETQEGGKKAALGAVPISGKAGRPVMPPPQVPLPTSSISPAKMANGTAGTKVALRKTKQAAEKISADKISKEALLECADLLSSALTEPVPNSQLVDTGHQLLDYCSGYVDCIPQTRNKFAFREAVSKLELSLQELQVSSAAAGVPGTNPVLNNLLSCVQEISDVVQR

[2] = variants of: B2; details: with shan2_human SHANK2, Q9UPX8
Chain of shan2_human SHANK2, Q9UPX8 (Q9UPX8 whole entry): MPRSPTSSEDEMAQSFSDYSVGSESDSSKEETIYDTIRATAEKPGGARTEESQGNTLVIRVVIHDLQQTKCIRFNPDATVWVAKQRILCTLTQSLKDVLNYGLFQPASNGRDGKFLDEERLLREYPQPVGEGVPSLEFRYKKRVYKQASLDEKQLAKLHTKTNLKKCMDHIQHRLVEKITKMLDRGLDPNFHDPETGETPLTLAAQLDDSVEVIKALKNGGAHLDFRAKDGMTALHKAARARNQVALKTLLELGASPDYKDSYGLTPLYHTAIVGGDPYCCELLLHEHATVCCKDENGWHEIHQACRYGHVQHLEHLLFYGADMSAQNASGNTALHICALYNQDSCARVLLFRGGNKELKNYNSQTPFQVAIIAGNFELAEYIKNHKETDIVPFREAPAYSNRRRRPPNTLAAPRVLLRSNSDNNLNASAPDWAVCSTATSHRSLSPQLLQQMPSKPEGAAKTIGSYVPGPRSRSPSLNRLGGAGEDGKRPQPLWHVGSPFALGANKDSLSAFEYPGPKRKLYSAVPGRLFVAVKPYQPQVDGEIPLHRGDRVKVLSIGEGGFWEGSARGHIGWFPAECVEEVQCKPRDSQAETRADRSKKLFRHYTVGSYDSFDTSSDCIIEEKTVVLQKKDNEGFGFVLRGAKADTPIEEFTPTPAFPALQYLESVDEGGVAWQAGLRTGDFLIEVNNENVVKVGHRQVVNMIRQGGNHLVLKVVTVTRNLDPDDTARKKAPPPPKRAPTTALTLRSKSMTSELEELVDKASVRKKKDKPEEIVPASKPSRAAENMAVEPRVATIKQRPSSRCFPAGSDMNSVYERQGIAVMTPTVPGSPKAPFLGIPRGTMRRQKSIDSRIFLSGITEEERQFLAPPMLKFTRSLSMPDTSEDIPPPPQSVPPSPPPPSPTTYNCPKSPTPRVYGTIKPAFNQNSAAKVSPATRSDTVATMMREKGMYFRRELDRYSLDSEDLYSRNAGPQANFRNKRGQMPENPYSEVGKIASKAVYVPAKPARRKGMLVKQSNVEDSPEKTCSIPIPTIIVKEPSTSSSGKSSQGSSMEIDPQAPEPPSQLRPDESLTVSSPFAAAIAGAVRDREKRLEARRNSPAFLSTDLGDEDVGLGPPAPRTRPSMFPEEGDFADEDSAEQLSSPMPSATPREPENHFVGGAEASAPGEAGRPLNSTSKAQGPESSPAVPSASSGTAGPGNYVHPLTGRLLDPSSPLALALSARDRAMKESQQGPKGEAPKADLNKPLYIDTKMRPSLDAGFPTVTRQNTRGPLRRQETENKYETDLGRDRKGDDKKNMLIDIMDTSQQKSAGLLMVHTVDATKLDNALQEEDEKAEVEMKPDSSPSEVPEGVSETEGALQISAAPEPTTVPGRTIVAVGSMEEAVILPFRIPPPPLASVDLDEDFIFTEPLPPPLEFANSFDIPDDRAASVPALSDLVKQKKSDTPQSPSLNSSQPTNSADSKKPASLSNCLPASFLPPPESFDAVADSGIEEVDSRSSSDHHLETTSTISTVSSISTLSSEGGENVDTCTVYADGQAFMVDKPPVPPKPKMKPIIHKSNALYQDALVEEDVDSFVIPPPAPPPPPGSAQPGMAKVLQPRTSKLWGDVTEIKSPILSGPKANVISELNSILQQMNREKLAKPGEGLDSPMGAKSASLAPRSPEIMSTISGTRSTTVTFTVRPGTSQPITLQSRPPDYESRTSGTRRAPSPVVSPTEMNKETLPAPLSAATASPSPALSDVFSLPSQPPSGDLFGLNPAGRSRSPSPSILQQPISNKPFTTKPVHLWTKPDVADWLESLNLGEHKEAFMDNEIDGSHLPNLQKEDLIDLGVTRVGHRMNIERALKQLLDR

[3] = variants of: B2; details: with m4k1_human MAP4K1, Q92918
Chain of m4k1_human MAP4K1, Q92918 (Q92918 whole entry, looked up): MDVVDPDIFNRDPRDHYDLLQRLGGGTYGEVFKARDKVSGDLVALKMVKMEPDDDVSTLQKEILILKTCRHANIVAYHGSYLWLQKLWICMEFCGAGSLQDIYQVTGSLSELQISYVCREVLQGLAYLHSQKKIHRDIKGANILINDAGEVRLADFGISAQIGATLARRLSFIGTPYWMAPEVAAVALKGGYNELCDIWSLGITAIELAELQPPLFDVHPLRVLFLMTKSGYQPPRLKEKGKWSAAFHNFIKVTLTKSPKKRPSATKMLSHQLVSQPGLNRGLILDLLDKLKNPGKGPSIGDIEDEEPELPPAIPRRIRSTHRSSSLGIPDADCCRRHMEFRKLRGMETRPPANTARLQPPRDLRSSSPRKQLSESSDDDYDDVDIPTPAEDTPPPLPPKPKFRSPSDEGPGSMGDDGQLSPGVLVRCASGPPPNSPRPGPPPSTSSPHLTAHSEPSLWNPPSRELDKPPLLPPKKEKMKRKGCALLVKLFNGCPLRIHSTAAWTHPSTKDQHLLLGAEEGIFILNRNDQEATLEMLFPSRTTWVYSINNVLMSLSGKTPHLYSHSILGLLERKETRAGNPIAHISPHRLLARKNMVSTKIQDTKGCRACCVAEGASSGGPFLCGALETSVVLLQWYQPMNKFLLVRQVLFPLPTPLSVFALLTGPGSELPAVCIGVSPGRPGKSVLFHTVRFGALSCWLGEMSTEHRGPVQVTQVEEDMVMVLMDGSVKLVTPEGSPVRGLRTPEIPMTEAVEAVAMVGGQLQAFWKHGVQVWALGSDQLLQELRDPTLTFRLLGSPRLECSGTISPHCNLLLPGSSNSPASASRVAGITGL

Row | effect of a mutation on the interaction (rin3_human RIN3, Q8TB24) | effect of a mutation on the interaction [1] | effect of a mutation on the interaction (abl2_human ABL2, P42684) | effect of a mutation on the interaction [2] | effect of a mutation on the interaction [3] | Variant
1 | disrupting interaction |  |  |  |  | W828A
2 |  | disrupting interaction | disrupting interaction | disrupting interaction | disrupting interaction | W828A
